Assay results taken from US20120237948.

Target: MMP13-undigested human type II collagen (UniProt P02458)
Sequence (P02458 182-1241): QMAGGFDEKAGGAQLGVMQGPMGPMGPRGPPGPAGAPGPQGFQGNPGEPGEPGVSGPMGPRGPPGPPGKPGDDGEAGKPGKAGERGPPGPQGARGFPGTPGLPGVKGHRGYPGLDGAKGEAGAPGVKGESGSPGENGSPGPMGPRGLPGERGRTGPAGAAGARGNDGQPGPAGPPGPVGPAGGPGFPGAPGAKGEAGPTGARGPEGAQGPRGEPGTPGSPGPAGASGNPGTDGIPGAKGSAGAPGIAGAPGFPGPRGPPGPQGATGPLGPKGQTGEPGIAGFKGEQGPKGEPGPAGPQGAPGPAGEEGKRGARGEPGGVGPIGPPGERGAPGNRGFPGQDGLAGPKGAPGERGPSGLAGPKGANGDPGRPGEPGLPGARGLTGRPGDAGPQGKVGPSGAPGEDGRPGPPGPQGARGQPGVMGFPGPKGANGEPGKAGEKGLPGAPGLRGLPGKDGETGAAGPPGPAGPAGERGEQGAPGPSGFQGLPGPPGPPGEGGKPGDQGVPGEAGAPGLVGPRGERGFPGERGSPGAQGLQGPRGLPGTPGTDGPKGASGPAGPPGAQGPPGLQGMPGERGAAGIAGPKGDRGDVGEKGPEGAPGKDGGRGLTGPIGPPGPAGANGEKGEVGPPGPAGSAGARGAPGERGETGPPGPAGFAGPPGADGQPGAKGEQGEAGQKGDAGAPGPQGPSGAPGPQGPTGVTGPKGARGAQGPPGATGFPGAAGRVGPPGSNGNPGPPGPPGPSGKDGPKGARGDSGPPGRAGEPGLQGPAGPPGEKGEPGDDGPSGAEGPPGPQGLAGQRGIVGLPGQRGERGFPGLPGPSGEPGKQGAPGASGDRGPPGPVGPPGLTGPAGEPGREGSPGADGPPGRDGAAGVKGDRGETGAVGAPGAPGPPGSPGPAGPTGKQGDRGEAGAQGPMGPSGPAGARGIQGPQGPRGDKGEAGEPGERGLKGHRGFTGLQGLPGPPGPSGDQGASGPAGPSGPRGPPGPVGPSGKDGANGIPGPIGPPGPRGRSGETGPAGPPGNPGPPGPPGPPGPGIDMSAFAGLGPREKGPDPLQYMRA

activated human MMP13
amount of the collagen neoepitope in the enzyme-reaction buffer (sandwich ELISA of Example 4): the measurements of the neoepitope increased in a manner dependent on the dose of MMP13 added
